T1: seleno-methionine labeled SRP72-PBD (L31M/L65M) (human, UniProt O76094 8-166, L31M | L65M, seleno-methionine labeled)
T1 sequence (looked up): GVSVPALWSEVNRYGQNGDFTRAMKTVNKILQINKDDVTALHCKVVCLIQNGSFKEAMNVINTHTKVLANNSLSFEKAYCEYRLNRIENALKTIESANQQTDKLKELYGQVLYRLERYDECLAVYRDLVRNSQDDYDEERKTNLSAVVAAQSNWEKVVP

T2: human SRP72 protein-binding domain (SRP72-PBD, 8-166) (human, UniProt O76094 8-166)
T2 sequence (looked up): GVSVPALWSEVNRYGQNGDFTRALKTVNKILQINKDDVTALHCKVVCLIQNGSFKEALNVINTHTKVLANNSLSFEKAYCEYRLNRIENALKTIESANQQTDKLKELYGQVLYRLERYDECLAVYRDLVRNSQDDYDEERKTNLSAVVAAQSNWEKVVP


What was measured:
[1] = molecular target: T1, seleno-methionine labeled SRP72-PBD …; experiment: crystal structure
[2] = molecular target: T2, human SRP72 protein-binding domain …; experiment: ITC

Row | binding result [1] | Kd [2] | dH [2] | Binder
1 | binds |  |  | untagged human SRP68 protein-binding domain (SRP68-PBD, 546-614) (domain or fragment, UniProt Q9UHB9 546-614, looked up) SQVKDNKPLVERFETFCLDPSLVTKQANLVHFPPGFQPIPCKPLFFDLALNHVAFPPLEDKLEQKTKSG
2 |  | 33 ± 11 nM | -15.7 ± 0.5 kcal/mol | His6-SRP68-PBD (human SRP68 546-614 from pETtrx1a) (domain or fragment, UniProt Q9UHB9 546-614, looked up) SQVKDNKPLVERFETFCLDPSLVTKQANLVHFPPGFQPIPCKPLFFDLALNHVAFPPLEDKLEQKTKSG

From paper PMC5224484 (Nucleic Acids Research, 2016)
